In patent US20120100556A1, “Functional Expression of Higher Plant Nitrate Transporters in Pichia Pastoris” (priority 2007, published 2012):

B1: AtNrt1.3: higher plant nitrate transporter protein, GenBank accession AB019232 (protein, UniProt Q9LVE0 1-590, looked up)
Protein NRT1/ PTR FAMILY 6.4: MVHVSSSHGAKDGSEEAYDYRGNPPDKSKTGGWLGAGLILGSELSERICVMGISMNLVTYLVGDLHISSAKSATIVTNFMGTLNLLGLLGGFLADAKLGRYKMVAISASVTALGVLLLTVATTISSMRPPICDDFRRLHHQCIEANGHQLALLYVALYTIALGGGGIKSNVSGFGSDQFDTSDPKEEKQMIFFFNRFYFSISVGSLFAVIALVYVQDNVGRGWGYGISAATMVVAAIVLLCGTKRYRFKKPKGSPFTTIWRVGFLAWKKRKESYPAHPSLLNGYDNTTVPHTEMLKCLDKAAISKNESSPSSKDFEEKDPWIVSTVTQVEEVKLVMKLVPIWATNILFWTIYSQMTTFTVEQATFMDRKLGSFTVPAGSYSAFLILTILLFTSLNERVFVPLTRRLTKKPQGITSLQRIGVGLVFSMAAMAVAAVIENARREAAVNNDKKISAFWLVPQYFLVGAGEAFAYVGQLEFFIREAPERMKSMSTGLFLSTISMGFFVSSLLVSLVDRVTDKSWLRSNLNKARLNYFYWLLVVLGALNFLIFIVFAMKHQYKADVITVVVTDDDSVEKEVTKKESSEFELKDIP
B2: HvNar2.3: barley associate protein Nar2 of two-component HATS, SEQ ID NO: 6 (protein)
chain: MARQGMVTALLLLVLAAGCCASAGAVAYLSKLPVTLDVTASPTPGQVLHAGEDVITVTWALNASQPAGKDADYKNVKVSLCYAPVSQKEREWRKTHDDLKKDKTCQFKITQQAYPGAGKVEYRVALDIPTATYYVRAYALDASGTQVAYGQTAPTAAFNVVSITGVTTSIKVAAGVFSAFSVASLAFFFFIEKRKKNN
modifications: Hordeum vulgare
B3: AtNrt1.4: higher plant nitrate transporter protein, GenBank accession AC003105 (protein, UniProt Q9SZY4 1-577, looked up)
Protein NRT1/ PTR FAMILY 6.2: MESKGSWTVADAVDYKGRPADKSKTGGWITAALILGIEVVERLSTMGIAVNLVTYLMETMHLPSSTSANIVTDFMGTSFLLCLLGGFLADSFLGRFKTIGIFSTIQALGTGALAVATKLPELRPPTCHHGEACIPATAFQMTILYVSLYLIALGTGGLKSSISGFGSDQFDDKDPKEKAHMAFFFNRFFFFISMGTLLAVTVLVYMQDEVGRSWAYGICTVSMAIAIVIFLCGTKRYRYKKSQGSPVVQIFQVIAAAFRKRKMELPQSIVYLYEDNPEGIRIEHTDQFHLLDKAAIVAEGDFEQTLDGVAIPNPWKLSSVTKVEEVKMMVRLLPIWATTIIFWTTYAQMITFSVEQASTMRRNIGSFKIPAGSLTVFFVAAILITLAVYDRAIMPFWKKWKGKPGFSSLQRIAIGLVLSTAGMAAAALVEQKRLSVAKSSSQKTLPISVFLLVPQFFLVGAGEAFIYTGQLDFFITQSPKGMKTMSTGLFLTTLSLGFFVSSFLVSIVKRVTSTSTDVGWLADNINHGRLDYFYWLLVILSGINFVVYIICALWFKPTKGKDSVEKENGKGFSVEDC
B4: AtNrt1.1: higher plant nitrate transporter protein, GenBank accession L10357 (protein, UniProt Q05085 1-590, looked up)
Protein NRT1/ PTR FAMILY 6.3: MSLPETKSDDILLDAWDFQGRPADRSKTGGWASAAMILCIEAVERLTTLGIGVNLVTYLTGTMHLGNATAANTVTNFLGTSFMLCLLGGFIADTFLGRYLTIAIFAAIQATGVSILTLSTIIPGLRPPRCNPTTSSHCEQASGIQLTVLYLALYLTALGTGGVKASVSGFGSDQFDETEPKERSKMTYFFNRFFFCINVGSLLAVTVLVYVQDDVGRKWGYGICAFAIVLALSVFLAGTNRYRFKKLIGSPMTQVAAVIVAAWRNRKLELPADPSYLYDVDDIIAAEGSMKGKQKLPHTEQFRSLDKAAIRDQEAGVTSNVFNKWTLSTLTDVEEVKQIVRMLPIWATCILFWTVHAQLTTLSVAQSETLDRSIGSFEIPPASMAVFYVGGLLLTTAVYDRVAIRLCKKLFNYPHGLRPLQRIGLGLFFGSMAMAVAALVELKRLRTAHAHGPTVKTLPLGFYLLIPQYLIVGIGEALIYTGQLDFFLRECPKGMKGMSTGLLLSTLALGFFFSSVLVTIVEKFTGKAHPWIADDLNKGRLYNFYWLVAVLVALNFLIFLVFSKWYVYKEKRLAEVGIELDDEPSIPMGH

Tests used:
[1] = tested on: Pichia pastoris cells with co-expressed Arabidopsis nitrate reductase and a yeast nitrate transporter; settings: 150 mM chlorate on solid medium; methanol-inducible AOX promoter; cited from earlier work
[2] = tested on: Pichia angusta Nrt transformants; assay: Functional pre-screening chlorate assay (growth on minimal plate); type: cell-based, Pichia pastoris; settings: 0.5 mM chlorate, overnight at 30° C.
Experimental: […] These were incubated overnight at 30° C. The amount of growth was observed the next morning. […] This assay was repeated with various Nrt genes.

functional transformants = assay: Chlorate assay, functional transformants with pGAP promoter; type: cell-based, Pichia pastoris; settings: as low as
Experimental: A particularly effective way to screen for functional transformants is the use of a chlorate assay. It is known that Pichia pastoris cells with co-expressed Arabidopsis nitrate reductase and a yeast nitrate transporter driven under methanol-inducible AOX promoter are sensitive to 150 mM chlorate on solid medium. See, Unkles, et al., (2004) J. Biol. Chem., 279:28182-86. However, when a constitutive promoter rather than the commonly-used pAOX is used, the sensitivity of the functional transformants to chlorate increases substantially, and therefore the chlorate assay is much more sensitive. For example, when the preferred pGAP promoter is used, functional transformants are sensitive to chlorate concentrations much below 150 mM, such as by concentrations of as low as about 0.5 mM. Of course, the sensitivity level will vary depending on the rate of uptake of the particular Nrt integrated into the Pichia pastoris.

[3] = tested on: Arabidopsis Nrt1.1 transformants; assay: Functional pre-screening chlorate assay (growth on minimal plate); type: cell-based, Pichia pastoris; settings: very small concentrations of chlorate, relative to Pichia angusta Nrt transformants
Experimental: 5 μL of overnight YPD transformant cultures were spotted onto a minimal plate containing yeast nitrogen base, 10 mM proline, 2% glucose and 3-20 mM chlorate. These were incubated overnight at 30° C. The amount of growth was observed the next morning. […] This assay was repeated with various Nrt genes.

[4] = tested on: P. pastoris GS115-YNR1 transformants; assay: Nitrate transporter (NT) activity of barley two-component HATS transformants, nitrite assay; type: cell-based, Pichia pastoris; settings: 1 mM NaNO3, 2 hours at 30° C., pH 6.5; compared to negative controls GS115 wt and GS115-YNR1
From the text: To test if P. pastoris was capable to identify a plant two-component HATS system, the following constructs containing HvNrt2.1 (SEQ ID NO: 5) or HvNar2.3 (SEQ ID NO: 6) were made and transformed into GS115-YNR1 line at AOX locus individually: pPIC3.5-pGAP-HvNrt2.1 or pPIC3.5-pGAP-HvNar2.3. To obtain transformants carrying HvNar2.3 and HvNrt2.1, GS115 wt was transformed with pPIC3.5-pGAPHvNar2.3-pGAPYNR at His 4 locus, then re-transformed with pPIC3.5-pGAP-HvNrt2.1 at AOX locus after the line was confirmed carrying both YNR1 and HvNar2.3 genes by PCR. The transformants were cultured in rich media (YPD) at 30° C. for overnight. Yeast cells were collected and washed with water twice then re-suspended in […], pH 6.5 and 1% glucose containing 1 mM NaNO3. After 2 hours incubation at 30° C., the supernatant was collected for nitrite assay with 1% Sulfanilamide, 0.01% N-(1-Naphthyl)ethylene-diamine dihydrochloride and 15% (v/v) H3PO4.

[5] = tested on: Pichia pastoris cell expressing the indicated nitrate transporter gene; assay: In vivo nitrate uptake assay (nitrite in medium by Griess reagent, Michaelis-Menten fit); type: cell-based; settings: transporter co-expressed with YNR1 in Pichia pastoris; 20 mM MOPS pH 6.5, 1% glucose; nitrate 0-30 mM
From the text: Pichia pastoris is a non-nitrate assimilating yeast. Because of this, any nitrate taken in via the Nrt is converted to nitrite by the co-expressed Nr and diffused or transported to the medium. This property permits the transformed Pichia pastoris to be used as an in vivo nitrate uptake assay, as the amount of nitrate taken into the cells is directly proportional to the nitrite later present in the growth medium. Nitrite may be quantitatively detected using Griess reagent or any other method known in the art. By way of the assay, various kinetic parameters of an Nrt may be quantified, such as Km and Vmax.
The assay is generally performed by incubating transformed Pichia pastoris on a medium containing nitrate for a set amount of time and assessing the amount of nitrite diffused to the medium after that set amount of time. The medium is preferably buffered. Most preferably, the medium has about 20 mM MOPS, pH 6.5, buffer and about 1% glucose, as this buffered medium allows the detection of linear uptake for up to several hours. The table below provides kinetic data for several Nrt proteins ascertained using the in vivo uptake assay herein described:
Pichia pastoris transformants were prepared in accordance with example 1 above and grown in YPD medium at 30° C. for 1 day. Cell pellets were washed twice with water then resuspended with a proper amount of uptake medium including nitrate. 24 different nitrate concentrations were tested, ranging from 0-30 mM. Optimal results were obtained with a buffered medium such as 20 mM MOPS, pH 6.5, 1% glucose, and the varying concentrations of nitrate. The aliquots were transferred into a 96-well plate; supernatants were mixed with Greiss reagent and monitored at 545 nm using a plate reader produced by Molecular Devices.
The raw data were fitted into proper kinetic equations, such as the Michaelis-Menton equation, using a program such as KaleidaGraph, available from Synergy Software, Reading Pa., USA. This in vivo uptake assay permits the kinetics of various nitrate transporters to be ascertained, such as those listed in Table 1 above.

Molecule	NT activity [4]	Km [5]	Vmax, μM of nitrate taken up in one minute by 50 μl Pichia pastoris cell [5]	further results
[O-][Cl+2]([O-])O [chlorate]				sensitivity to chlorate [1]: sensitive; growth of transformants in chlorate [2]: inhibited; chlorate concentration to which functional transformants are sensitive (functional transformants): about 0.5 mM; sensitivity of transformants to chlorate [3]: less sensitive
HvNrt2.1: barley carrier-type protein Nrt2 of two-component HATS, SEQ ID NO: 5	did not have NT activity			
B1		7400 µM	14.4 μM/m/50 μl cell	
B2	did not have NT activity			
B3		610 µM	4.0 μM/m/50 μl cell	
B4		360 µM	8.0 μM/m/50 μl cell	
